{
  "source": "patent US20180186896A1",
  "data": [
    {"biological_target": "membrane IgE C2C4 expressed on Ramos cells (in the presence of Ig-alpha and Ig-beta) (human) (UniProt P01854)", "assay": "flow cytometry, MFI on C2C4-expressing Ramos cells divided by MFI on non-induced cells", "values": [
      {"substance": "Negative controls (right sample block, starting with no primary AB)", "MFI ratio": 1},
      {"substance": "positive control mAB anti-IgE BSW17 (antibody)", "MFI ratio": "> 5"},
      {"substance": "positive control mAB anti-IgE Le27 (antibody)", "MFI ratio": "> 5"}
    ]}
  ]
}
